Literature values, collected in publication PMC3931982.

Target: RXR LBD (Homo sapiens) (UniProt P19793)

Kd: 4 nM
Substance: RXR LBD (from UniProt P19793)
